What is called EC50 is the midpoint of the concentration-response curve.

In assay [1] the target is T1, recombinant histidine-tagged human E-selectin (Sino Biologicals; 13025-H08H) (human, UniProt P16581 22-556).
T1 construct: also called recombinant human E-selectin; soluble recombinant human E-selectin
T1 sequence (looked up): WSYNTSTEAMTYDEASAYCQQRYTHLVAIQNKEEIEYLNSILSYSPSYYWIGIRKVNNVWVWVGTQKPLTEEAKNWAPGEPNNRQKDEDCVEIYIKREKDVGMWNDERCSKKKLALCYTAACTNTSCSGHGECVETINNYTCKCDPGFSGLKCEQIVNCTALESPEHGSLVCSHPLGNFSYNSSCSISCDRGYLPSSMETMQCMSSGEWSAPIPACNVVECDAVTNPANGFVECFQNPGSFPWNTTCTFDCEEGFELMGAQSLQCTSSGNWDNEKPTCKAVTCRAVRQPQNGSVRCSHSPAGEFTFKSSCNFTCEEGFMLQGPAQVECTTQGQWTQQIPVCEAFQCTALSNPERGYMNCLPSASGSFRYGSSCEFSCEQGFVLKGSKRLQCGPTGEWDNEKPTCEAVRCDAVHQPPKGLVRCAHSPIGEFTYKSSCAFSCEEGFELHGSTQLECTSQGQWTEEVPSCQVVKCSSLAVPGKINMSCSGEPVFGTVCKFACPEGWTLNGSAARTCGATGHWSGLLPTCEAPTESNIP
In words: direct binding ELISA, His-tagged selectin on plate. The method, then:
(§1) Recombinant histidine tagged human P-, E- or L-selectin (Sino Biologicals), mouse E-selectin (Sino Biologicals), rat E-selectin (Sino Biologicals) and Cynomolgus monkey E-selectin (Sino Biologicals) stock solutions were prepared to a final concentration of 1 μg/mL in phosphate buffered saline without calcium and magnesium. Controls included an L-selectin directed antibody (BioLegend; 304811) or P-selectin directed antibody or a negative control IgG. One hundred μL per well of the diluted recombinant selectin proteins were added into a Ni-NTA HisSorb 96 well plate (Qiagen; 35061). Plates were incubated on an orbital shaker at room temperature for 2 hours. Following the incubation, the plates were washed 3 times with 200 μL of wash buffer (50 mM TRIS [trisaminomethane]; 150 mM sodium chloride; 0.05% polysorbate 20, pH 7.4). To decrease nonspecific binding, plates were treated with 200 μL of blocking buffer (BD Opteia buffer; 555213; BD Biosciences), incubated on an orbital shaker for 1 hour at room temperature and washed as described above. […] One hundred μL specific detection antibodies (described below) were added and incubated for 1 hour: [0556] […] Anti L-selectin and anti-rat-E-selectin antibodies were detected using 1 to 25000 dilution of Peroxidase-conjugated AffiniPure Goat Anti-Mouse IgG (H+L); (Jackson ImnnunoResearch Lab).
(§2) Plates were washed and 100 μL per well of 1-Step Ultra TMB substrate (Thermo Scientific) was added and incubated for 5 minutes at room temperature. Reactions were stopped with 100 μL of 2 M sulfuric acid and absorbance read at 450 nm (Spectramax M5e).

The target of assay [2] is T2, recombinant histidine-tagged cynomolgus monkey E-selectin (Sino Biologicals; 190169-C08H) (cynomolgus monkey, UniProt A0A2K5U7H9 22-554).
T2 construct: also called recombinant cynomolgus monkey E-selectin
T2 sequence: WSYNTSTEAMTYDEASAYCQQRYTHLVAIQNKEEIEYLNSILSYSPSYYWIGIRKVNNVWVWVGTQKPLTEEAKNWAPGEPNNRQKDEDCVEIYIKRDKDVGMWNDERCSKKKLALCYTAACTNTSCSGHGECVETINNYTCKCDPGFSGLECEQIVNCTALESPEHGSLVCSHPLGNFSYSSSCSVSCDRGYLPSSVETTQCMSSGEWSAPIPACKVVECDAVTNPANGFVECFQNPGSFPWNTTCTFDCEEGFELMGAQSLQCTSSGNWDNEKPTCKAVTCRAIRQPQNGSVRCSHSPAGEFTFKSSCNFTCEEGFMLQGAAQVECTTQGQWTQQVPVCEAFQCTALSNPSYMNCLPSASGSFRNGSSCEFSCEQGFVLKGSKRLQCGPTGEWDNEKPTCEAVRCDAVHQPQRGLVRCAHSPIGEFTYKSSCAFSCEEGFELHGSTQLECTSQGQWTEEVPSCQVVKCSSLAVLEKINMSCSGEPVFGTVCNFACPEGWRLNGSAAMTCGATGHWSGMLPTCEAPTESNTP
In words: direct binding ELISA, His-tagged selectin on plate. The method, then:
as §1, §2
In general terms: In an ELISA, binding on a coated surface is turned into a signal by an enzyme label.

Assay [3] concerns the target T3, cynomolgus monkey E-selectin extracellular domain with 10 His purification tail (cynomolgus monkey, UniProt P16581 22-554 (human entry)).
T3 construct: also called cynomolgus E-selectin; truncated cynomolgus monkey E-selectin
T3 chain: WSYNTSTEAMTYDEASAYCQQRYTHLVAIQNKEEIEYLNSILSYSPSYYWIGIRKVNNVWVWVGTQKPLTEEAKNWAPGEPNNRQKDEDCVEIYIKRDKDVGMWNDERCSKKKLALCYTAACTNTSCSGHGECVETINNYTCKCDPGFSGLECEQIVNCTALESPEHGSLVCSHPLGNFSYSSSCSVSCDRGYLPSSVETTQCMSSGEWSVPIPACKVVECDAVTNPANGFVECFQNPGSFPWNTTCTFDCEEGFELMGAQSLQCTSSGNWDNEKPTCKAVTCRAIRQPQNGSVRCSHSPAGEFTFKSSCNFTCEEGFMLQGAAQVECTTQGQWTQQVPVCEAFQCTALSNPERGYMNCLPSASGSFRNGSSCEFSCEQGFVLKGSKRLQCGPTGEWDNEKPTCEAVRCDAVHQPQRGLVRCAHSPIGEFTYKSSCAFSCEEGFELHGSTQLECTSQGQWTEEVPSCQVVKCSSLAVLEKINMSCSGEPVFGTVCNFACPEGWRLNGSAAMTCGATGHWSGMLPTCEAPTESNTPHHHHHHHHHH
In words: AlphaLISA competition vs sialyl Lewis A-PAA-biotin. The method, then:
The neutralization ability of anti-E-selectin antibodies was measured in an AlphaLISA homogenous competition assay. […] This was incubated at room temperature for 15 minutes, followed by addition of 1.4 μL of human, mouse or cynomolgus monkey E-selectin added to a final concentration of 7 nM. This was again incubated at room temperature for 15 minutes. To this, 1.4 μL AlphaLISA beads was added (Ni-donor/SA-acceptor) for a final assay concentration of 10 μg/mL. This was incubated in the dark at room temperate for at least 10 hours. The plates were then read using the AlphaLISA protocol (Envision).
For orientation: Alpha assays give light when donor and acceptor beads are brought close together.

B1: humanized anti-E-selectin antibody 0841 (antibody, human IgG1, kappa, V domains shown)
VH: EVQLVESGGGLVQPGGSLRLSCAASGYNIRSSYMHWVRQAPGKGLEWVARIDPANGNTIYAEKFKIRFTISADNAKNSAYLQMNSLRAEDTAVYYCAMDLYSTSEYWGQGTLVTVSS
VL: DIQMTQSPSSLSASVGDRVTITCKTSQNINRYLNWYQQKPGKAPKLLIYNANSLQTGVPSRFSGSGSGTDFTLTISSLQPEDFATYFCLQDNSWPLTFGQGTKVEIKR
notes: effector-null human IgG1, kappa
On to B1, for which the EC50 in assay [1] is 0.17 nM; in assay [2], 0.081 nM.

B2: optimized anti-E-selectin antibody 1284 (antibody, human IgG1, kappa, V domains shown)
VH: EVQLVESGGGLVQPGGSLRLSCAASGYAIRSAYMHWVRQAPGKGLEWVARIDPANGNTIYVESVEGRFTISADNAKNSAYLQMNSLRAEDTAVYYCAMDLYSTSEYWGQGTLVTVSS
VL: DIQMTQSPSSLSASVGDRVTITCKTSQNIERYLNWYQQKPGKAPKLLIYAASSLQSGVPSRFSGSGSGTDFTLTISSLQPEDFATYFCLQDNAWPLTFGQGTKVEIKR
notes: as for B1
B2: the values for the EC50 in assay [1] and in assay [2] were 0.1 nM and 0.082 nM, respectively.

B3: optimized anti-E-selectin antibody 1444 (antibody, human IgG1, kappa, V domains shown)
VH: EVQLVESGGGLVQPGGSLRLSCAASGYAIRSAYMHWVRQAPGKGLEWVARIDPANGNTIYVDSVTGRFTISADNAKNSAYLQMNSLRAEDTAVYYCAMDLYSTSEYWGQGTLVTVSS
VL: DIQMTQSPSSLSASVGDRVTITCKTSQNIERYLNWYQQKPGKAPKLLIYAASSLQSGVPSRFSGSGSGTDFTLTISSLQPEDFATYFCLQDNAWPLTFGQGTKVEIKR
notes: as for B1
For the molecule B3, the values for the concentration giving a half-maximal response (EC50) in assay [1] and in assay [2] were 0.12 nM and 0.093 nM, respectively.

B4: anti-E-selectin antibody 0159 chimera (antibody, human IgG1, kappa, V domains shown)
VH: EVQLQQSGAELGKPGTSVKLSCKVSGYNIRSTYMHWVSQRPGKGLEWIGRIDPANGNTIYAEKFKRKATLTADTSSNTAYMQLSQLKSDDRAIYFCAMEVRVSFEYWGQGVMVTVSS
VL: DIQMTQSPSFLSASVGDRVTINCKASQNINKYLDWYQQKLGEGPKLLIYYTNNLHTGIPSRFSGSGSGTDFTLTISSLQPEDVATYFCLQHDSGYTFGAGTKLELKR
notes: rat VH/VL on effector-null human IgG1 and human kappa
B4: the EC50 in assay [3] is less than 1 nM.

B5: anti-E-selectin antibody 0170 chimera (antibody, human IgG1, kappa, V domains shown)
VH: EVQLQQSGAELGKPGTSVKLSCKVSGYSIRSTYMHWVNQRPGKGLEWVGRIDPANGNTIYAERFKNKATLTADTSSNTAYMQLSQLKSDDTAIYFCAVEILGIFDYWGQGVMVTVSS
VL: DIQMTQSPSFLSASVGDRVTINCKASQNIDKYLDWYQQKLGEAPKLLMYNTNSLHTGIPSRFSGSGSGTDFTLTISSLQPEDVATYFCLQHNSGYTFGAGTKLELKR
notes: as for B4
The molecule B5 gave an EC50 in assay [3] of less than 1 nM.

B6: anti-E-selectin antibody 0039 chimera (antibody, human IgG1, kappa, V domains shown)
VH: QVQLKETGPGLVQPTQTLSITCTVSGFSLTGYYMQWVRQTPGKGLEWMGFIRSSGSTEYNSEFKSRLSISRDTSKNQVFLKMNSLKTEDTGVYYCARCPYKYSSFVYVGVMDAWGQGAPVTVSS
VL: EIVMTQSPTSMSTSIGERVTLNCKASQTVGINVDWYQQTPGQPPKLLIYGASNRHTGVPDRFTGSGFGRDFTLTISNVEAEDLAVYCCLQYGSIPHTFGPGTKLELKR
notes: as for B4
As to B6, the EC50 in assay [3] was more than 63 nM.

B7: anti-E-selectin antibody 0180 chimera (antibody, human IgG1, kappa, V domains shown)
VH: EVQLQQSGAELGKPGTSVKLSCKVSGYKIRSSYMHWVNQRPGKGLEWIGRIDPANGNTIYGDKFKSKATLTSDTSSNTAYIQLSQLKSDDTAIYFCAIDIGTTFDYWGQGVMVTVSS
VL: DIQMTQSPSFLSASVGDRVTINCKASQHINRYLNWYQQKLGEAPKLLIYDANNLQTGIPSRFSGSGSGTDFTLTISSLQPEDVATYFCLQHNSWPNTFGAGTKLELKR
notes: as for B4
Molecule B7 had a concentration giving a half-maximal response (EC50) in assay [3] of less than 1 nM.

B8: anti-E-selectin antibody 0164 chimera (antibody, human IgG1, kappa, V domains shown)
VH: EVQLQQSGAEFGKPGTSVKLSCKVSGYNIRSSYMHWVNQRPGKGLEWIGRIDPANGNTIYAEKFKIKAILTADSSSNTAYMQLSQLKSDDTAIYFCAMDLYSTSEYWGQGVMVTVSS
VL: DIQMTQSPSFLSASVGDRVTINCKTSQNINRYLNWYQQKLGEAPKLLIYNANSLQTGIPSRFSASGSGTDFTLTINSLQPEDVATYFCLQDNSWPLTFGSGTKLEIKR
notes: as for B4
Molecule B8 came in with an EC50 in assay [3] of less than 1 nM.

The values above are taken from US20240076386A1 (Pfizer, published 2024).
